Legend:
Settings in all cases: both partners purified
[1] = target: T1, β16β17 (erythrocyte β-spectrin residues 1898–2083), wild type (human, UniProt P11277 1898-2083); assay: stopped-flow intrinsic tryptophan fluorescence (dissociation/unfolding kinetics); wild type; observed rate constants for tetramer dissociation calculated from folding and unfolding experiments in urea; k− in water with mk− 1.44 M^-1; PBS, 25 °C
T1 construct: erythrocyte β-spectrin, human, residues 1898-2083 (β16 plus the incomplete 17th domain); synthetic gene (GenScript) in a modified pRSETA plasmid; source: E. coli C41(DE3), purified (Ni2+ agarose, thrombin cleavage, gel filtration)
T1 sequence (looked up): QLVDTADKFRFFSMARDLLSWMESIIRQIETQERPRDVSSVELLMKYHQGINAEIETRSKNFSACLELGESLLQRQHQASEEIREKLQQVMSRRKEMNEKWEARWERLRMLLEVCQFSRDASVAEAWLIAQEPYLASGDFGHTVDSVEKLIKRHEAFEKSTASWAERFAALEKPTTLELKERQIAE

[2] = target: T1, β16β17 (erythrocyte β-spectrin residues …); assay: ITC; β16β17 at 25–50 μM in the cell titrated with 15–20 injections to 2–2.5 eq of α0α1; one-site binding model; PBS (50 mM sodium phosphate, 150 mM NaCl, pH 7.04), 25 °C; mutants only against the wild-type partner
β16β17 K46A = target: T2, β16β17 K46A (human, UniProt P11277 1898-2083, K2049A); assay: as above
T2 construct: erythrocyte β-spectrin, human, residues 1898-2083 (β16β17); mutant of m2; also called K2049A; source: E. coli C41(DE3), purified (Ni2+ agarose, thrombin cleavage, gel filtration)
T2 sequence (looked up): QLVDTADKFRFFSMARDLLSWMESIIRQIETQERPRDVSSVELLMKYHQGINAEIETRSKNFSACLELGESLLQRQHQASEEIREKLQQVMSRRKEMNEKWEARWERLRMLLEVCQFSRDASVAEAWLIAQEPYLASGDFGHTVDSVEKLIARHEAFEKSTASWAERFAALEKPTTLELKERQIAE

β16β17 S57A = target: T3, β16β17 S57A (human, UniProt P11277 1898-2083, S2060A); assay: as above
T3 construct: erythrocyte β-spectrin, human, residues 1898-2083 (β16β17); mutant of m2; also called S2060A; source: E. coli C41(DE3), purified (Ni2+ agarose, thrombin cleavage, gel filtration)
T3 sequence (looked up): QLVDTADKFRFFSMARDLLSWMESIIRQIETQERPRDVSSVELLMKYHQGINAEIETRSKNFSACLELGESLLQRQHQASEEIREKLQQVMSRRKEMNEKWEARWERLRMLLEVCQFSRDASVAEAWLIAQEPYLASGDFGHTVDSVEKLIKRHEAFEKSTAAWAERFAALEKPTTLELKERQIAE

β16β17 S57G = target: T4, β16β17 S57G (human, UniProt P11277 1898-2083, S2060G); assay: as above
T4 construct: erythrocyte β-spectrin, human, residues 1898-2083 (β16β17); mutant of m2; also called S2060G; source: E. coli C41(DE3), purified (Ni2+ agarose, thrombin cleavage, gel filtration)
T4 sequence (looked up): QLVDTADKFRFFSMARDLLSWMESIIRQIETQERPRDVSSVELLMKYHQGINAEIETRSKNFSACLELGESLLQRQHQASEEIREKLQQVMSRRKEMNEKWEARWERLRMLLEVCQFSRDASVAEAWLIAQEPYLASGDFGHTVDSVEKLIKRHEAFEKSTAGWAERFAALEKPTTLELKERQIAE

β16β17 K43A = target: T5, β16β17 K43A (human, UniProt P11277 1898-2083, K2046A); assay: as above
T5 construct: erythrocyte β-spectrin, human, residues 1898-2083 (β16β17); mutant of m2; also called K2046A; source: E. coli C41(DE3), purified (Ni2+ agarose, thrombin cleavage, gel filtration)
T5 sequence (looked up): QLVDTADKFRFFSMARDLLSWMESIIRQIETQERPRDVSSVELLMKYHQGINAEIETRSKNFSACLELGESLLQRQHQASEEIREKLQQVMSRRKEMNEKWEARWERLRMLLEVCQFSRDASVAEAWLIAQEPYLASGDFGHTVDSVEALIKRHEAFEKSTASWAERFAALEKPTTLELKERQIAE

β16β17 D39G = target: T6, β16β17 D39G (human, UniProt P11277 1898-2083, D2042G); assay: as above
T6 construct: erythrocyte β-spectrin, human, residues 1898-2083 (β16β17); mutant of m2; also called D2042G; source: E. coli C41(DE3), purified (Ni2+ agarose, thrombin cleavage, gel filtration)
T6 sequence (looked up): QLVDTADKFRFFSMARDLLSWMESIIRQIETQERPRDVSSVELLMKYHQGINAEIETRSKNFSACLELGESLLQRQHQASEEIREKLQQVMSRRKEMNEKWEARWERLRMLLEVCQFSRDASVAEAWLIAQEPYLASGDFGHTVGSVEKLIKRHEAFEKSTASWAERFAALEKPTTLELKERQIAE

koff [1]: 0.00025 s⁻¹
Kd [2]: 400 nM
Ka (β16β17 K46A): 520000 M⁻¹
Ka (β16β17 S57A): 1.5e+06 M⁻¹
Ka (β16β17 S57G): 900000 M⁻¹
Ka (β16β17 K43A): 1.8e+06 M⁻¹
Ka (β16β17 D39G): 280000 M⁻¹
B1: α0α1 (erythrocyte α-spectrin residues 2–163), wild type (domain or fragment, human, UniProt P02549 2-163, looked up)
chain: EQFPKETVVESSGPKVLETAEEIQERRQEVLTRYQSFKERVAERGQKLEDSYHLQVFKRDADDLGKWIMEKVNILTDKSYEDPTNIQGKYQKHQSLEAEVQTKSRLMSELEKTREERFTMGHSAHEETKAHIEELRHLWDLLLELTLEKGDQLLRALKFQQY
notes: synthetic gene (GenScript) in a modified pRSETA plasmid; also called α1α0; source: E. coli C41(DE3), purified (Ni2+ agarose, thrombin cleavage, gel filtration)

Source: article PMC9082959, “Mechanism of Assembly of the Non-Covalent Spectrin Tetramerization Domain from Intrinsically Disordered Partners” (Journal of molecular biology, 2013)
